Source: patent publication US7960513B2, “Antibody against a human ADAM protease” (Monash University, priority 2004, dated 2011)

Molecular target: T1, EphA3/ephrin-A5 complex (Homo sapiens, UniProt P29320+P52803)
T1 construct: Fc fusion proteins of the ephrin-A5 and EphA3 extracellular domains fused to the hinge and Fc region of human IgG1 were produced as described; expressed in transfected cells; host or cells: EphA3/HEK293 cells; ephrin-A5-Fc added as soluble pre-clustered protein
T1 sequence (P29320 21-983): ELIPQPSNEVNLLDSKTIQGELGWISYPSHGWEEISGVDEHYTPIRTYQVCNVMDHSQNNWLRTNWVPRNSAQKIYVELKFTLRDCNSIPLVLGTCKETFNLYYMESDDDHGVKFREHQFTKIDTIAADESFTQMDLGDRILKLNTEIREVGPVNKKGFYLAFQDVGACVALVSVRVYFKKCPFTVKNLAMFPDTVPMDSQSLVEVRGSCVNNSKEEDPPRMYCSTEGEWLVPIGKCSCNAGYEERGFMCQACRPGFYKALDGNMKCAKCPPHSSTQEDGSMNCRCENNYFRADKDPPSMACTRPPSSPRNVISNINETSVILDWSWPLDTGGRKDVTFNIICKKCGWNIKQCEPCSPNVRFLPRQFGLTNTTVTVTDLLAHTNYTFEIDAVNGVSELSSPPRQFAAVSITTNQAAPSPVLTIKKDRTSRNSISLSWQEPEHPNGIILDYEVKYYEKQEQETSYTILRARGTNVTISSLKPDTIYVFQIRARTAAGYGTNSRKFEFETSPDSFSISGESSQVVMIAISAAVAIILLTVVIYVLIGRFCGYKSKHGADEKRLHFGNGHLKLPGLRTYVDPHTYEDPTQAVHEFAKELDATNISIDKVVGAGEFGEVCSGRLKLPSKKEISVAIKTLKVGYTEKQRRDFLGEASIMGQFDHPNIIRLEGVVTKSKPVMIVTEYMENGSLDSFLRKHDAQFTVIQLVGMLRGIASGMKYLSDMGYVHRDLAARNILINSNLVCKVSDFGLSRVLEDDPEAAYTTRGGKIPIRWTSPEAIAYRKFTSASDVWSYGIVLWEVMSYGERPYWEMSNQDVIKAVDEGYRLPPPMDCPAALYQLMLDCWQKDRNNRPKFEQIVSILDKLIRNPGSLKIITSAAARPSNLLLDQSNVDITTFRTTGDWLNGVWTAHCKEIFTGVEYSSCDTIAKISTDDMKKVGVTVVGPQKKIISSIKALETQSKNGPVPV
T1 sequence (P52803 21-203 limits assumed): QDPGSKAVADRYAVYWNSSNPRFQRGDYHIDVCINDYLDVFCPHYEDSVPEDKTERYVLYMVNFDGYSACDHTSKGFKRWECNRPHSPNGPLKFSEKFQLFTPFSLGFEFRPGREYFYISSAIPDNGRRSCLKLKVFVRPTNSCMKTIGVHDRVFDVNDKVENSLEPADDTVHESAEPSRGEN
Assay: Co-immunoprecipitation from transfected cells treated with pre-clustered ephrin-A5-Fc
Format: cell-based
Conditions: EphA3/293 cells, pre-clustered ephrin-A5-Fc 10 min
Description: FIG. 4. Mutation of acidic residues in the ADAM10 Cys-rich domain affects binding to EphA3/ephrin-A5 and cleavage of ephrin-A5. • A. In vitro binding of mutant ADAM10D+C to EphA3/ephrin-A5. ADAM10D+C[EEE-A] containing Alanine substitutions of Glu573, Glu578, Glu579 (lanes 1-4) or ADAM10D+C[RDD-A] (Ala substitutions of Arg525, Asp526, Asp527, lanes 5-8) were incubated alone (lanes 1, 5), or together with EphA3-Fc (lanes 2, 6), ephrin-A5-Fc (lanes 3, 7), or EphA3-Fc and ephrin-A5 (lanes 4, 8). Complexed proteins were extracted with Protein-A-Sepharose beads and analysed as in FIG. 2. • B. Binding of wild-type and mutant ADAM10ΔMP to EphA3 in cells. EphA3/293 cells were transfected with HA-ADAM10ΔMP or HA-ADAM10ΔMP [EEE-A]. Parental and transfected cells were treated for 10 min with or without pre-clustered ephrin-A5-Fc and lysed. Anti-HA and anti-EphA3 immunoprecipitates, and total cell lysates were analysed by Western blotting with indicated antibodies. • C. Ephrin-A5-Fc cleavage in cells expressing wt and 3A mutant ADAM10. EphA3/293 cells were transfected with full length, wild-type (wt) ADAM10, dominant-negative ADAM10ΔMP, or ADAM10 bearing alanine (3A) or 3 lysine (3K) substitutions of Glu573, 578, 579. Following exposure to clustered (+) or non-clustered ? ephrin-A5 Fc, cleaved ephrin was recovered and analysed by Western Blot as described in FIG. 1c. […]

interaction with the EphA3/ephrin-A5 complex in cells: significantly inhibited
B1: ADAM10Δpro: cell-surface ADAM10Δpro incorporating the EEE-A amino acid substitutions (protein)
chain: SGQPICGNGMVEQGEECDCGYSDQCKDDCCFDANQPEGKKCKLKPGKQCSPSQGPCCTAQCAFKSKSEKCRDDSDCAKEGICNGFTALCPASDPKPNFTDCNRHTQVCINGQCAGSICAKYDLAACTCASSDGKDDKELCHVCCMKKMAPSTCASTGSLQWSKQFSGRTITLQPGSPCNDFRGYCDVFMRCRLVDADGPLARLKKAIFSPQLYENIAEWIVAHWWAVLLMGIALIMLMAGFIKICSVHTPSSNPKLPPPKPLPGTLKRRRPPQPIQQPPRQRPRESYQMGHMRR
modifications: left off: small tags and cut ends
notes: cell-surface ADAM10Δpro incorporating the EEE-A amino acid substitutions
